For the series, the target named is T1, RAGE (Mus musculus, UniProt Q62151).
T1 construct: The first set of studies employed synthetic Aβ infused in to wild-type mice; from tissue; host or cells: brain vasculature (blood-brain barrier) of living wild-type mice
The series can be described thus: Brain perfusion model: Aβ binding to brain capillaries and transport across the BBB. Type of series: in vivo, mice. Here is the method:
FIGS. 1A-1F. […] FIG. 1A and bFIG.
Brain perfusion model. […] Details of the extracorporeal perfusion circuit were as reported elsewhere. ^22,23,38,39 At the start of the perfusion, the contralateral common carotid artery was ligated, and both jugular veins severed to allow free drainage of the perfusate. Brains were perfused with oxygenated perfusion medium at a flow rate of 1 ml/min by peristalitic pump. […] Perfusion pressure and animal's own arterial blood pressure were continuously monitored. Blood gasses pO2, pCO2 and pH and electrolytes in the arterial inflow and in animal's own blood were monitored.
Injection of radioisotopes for transport studies. […] When the effects of different unlabeled molecular reagents were tested, those were injected 5 min prior to tracers injection and than simultaneously with radiolabled ligands. At predetermined times within 10 min mice were sacrificed by decapitation, and brain tissue prepared for radioactivity analysis. TCA and HPLC analysis as we described were used to determine molecular forms of uptake of radiolabeled Aβ by the BBB.^22,23 Capillary-depletion technique was used to separate micravascular pellet from capillary-depleted brain to quantify in vivo binding to microvessels vs. transport into brain parenchyma, as we reported.^22, 23
Mathematical modeling for transport studies. […] The rate of entry (KIN) is computed from eq. 1: d[CIN (TEST-MOLEUCLE)−CIN (ALBUMIN)]/dt=KINCPL−KOUT[CIN (TEST-MOLECULE)−CIN (ALBUMIN)], where KOUT is exit or efflux transfer coefficient, and R is the steady state or equilibrium ratio. Eq. 1 is integrated to give [CIN (TEST-MOLECULE)−CIN (ALBUMIN)]/CPL=R (1−e^−KOUT T) (eq. 2). R is the steady state ratio, and the ratio KIN/KOUT at infinite time, and T is infusion time. Numerical values for KOUT may be obtained from the slope of the plot of ln (R−[CIN (TEST-MOLECULE)−CIN (ALBUMIN)]/CPL) (eq. 3) against T, using the equation KOUT=−ln(R−[CIN (TEST-MOLECULE)−CIN (ALBUMIN)]/CPL)/T (eq. 4). Finally, the value for KIN is derived by substituting the number for KOUT in: KIN=R KOUT (eq. 5). When tracer uptake remains linear over studied period of time, the exist constant approaches zero, and KIN=d[CIN (TEST-MOLEUCLE)−CIN (ALBUMIN)]/dt CPL. […] Advanced graphics software and the MLAB mathematical modeling system (as above) will be used to obtain graphic plots and compute transfer coefficients.

Where [1] appears, read: circulating 125I-labeled peptide, mice and guinea pigs.
The mark [2] stands for this setting: reagent in arterial inflow, 125I-Aβ 4 nM, 10 min.

T1 sequence (Q62151 23-402): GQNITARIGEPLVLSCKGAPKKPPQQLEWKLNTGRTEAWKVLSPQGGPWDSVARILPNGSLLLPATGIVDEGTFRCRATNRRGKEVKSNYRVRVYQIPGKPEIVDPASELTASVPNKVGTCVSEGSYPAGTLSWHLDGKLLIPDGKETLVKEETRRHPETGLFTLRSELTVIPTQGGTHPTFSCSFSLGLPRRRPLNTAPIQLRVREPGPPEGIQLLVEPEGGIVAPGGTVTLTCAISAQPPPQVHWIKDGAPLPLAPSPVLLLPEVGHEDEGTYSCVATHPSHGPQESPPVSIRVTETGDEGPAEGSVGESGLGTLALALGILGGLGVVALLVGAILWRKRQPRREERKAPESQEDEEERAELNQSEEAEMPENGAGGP

As for “Aβ1-42: synthetic amyloid-β peptide 1-42, human form”, under setting [1], the “binding of the peptide to brain microvessels” value is given as “absence of its significant binding” and the “transport of the peptide across the BBB” value is reported as “somewhat slower, but significant”.
Take fucoidan: under setting [2], the “effect on Aβ transport into brain (BBB transport of Aβ)” value is listed as “did not affect” and the “effect on binding of Aβ to brain microvessels” value is reported as “did not affect”.

The values above are taken from patent US6677299B2, “Method to increase cerebral blood flow in amyloid angiopathy” (The Trustee of Columbia University in the city of New York, priority 2000, dated 2004).
